Nine molecules from patent publication US9593156B2 (priority 2012, dated 2017) can be followed below.

Test [1] deals with T1, type A insulin receptor (IR-A) (Homo sapiens, UniProt P06213).
T1 construct: expressed in transfected cells; host or cells: HEK293
Put plainly: Receptor kinase activity (phosphorylation) assay, type A insulin receptor. It is filed as cell-based.

The target in test [2] is T2, type B insulin receptor (IR-B) (Homo sapiens, UniProt P06213).
T2 construct: expressed in transfected cells; host or cells: HEK293
Put plainly: Receptor kinase activity (phosphorylation) assay, type B insulin receptor. It counts as cell-based.

In the next test the target is IGF-1 receptor (Homo sapiens, UniProt P08069). Put plainly: IGF-1 receptor competition binding assay (scintillation proximity). Set-up: expressed in transfected cells; plasma membrane fragments. Conditions: Table 9; IGF-1 Receptor. (SPA uses beads or plates that emit light when radiolabelled molecules are held near them.)

Ends that are not written are not given here.

Chain of IGF-1 receptor (P08069 31-736 limits assumed): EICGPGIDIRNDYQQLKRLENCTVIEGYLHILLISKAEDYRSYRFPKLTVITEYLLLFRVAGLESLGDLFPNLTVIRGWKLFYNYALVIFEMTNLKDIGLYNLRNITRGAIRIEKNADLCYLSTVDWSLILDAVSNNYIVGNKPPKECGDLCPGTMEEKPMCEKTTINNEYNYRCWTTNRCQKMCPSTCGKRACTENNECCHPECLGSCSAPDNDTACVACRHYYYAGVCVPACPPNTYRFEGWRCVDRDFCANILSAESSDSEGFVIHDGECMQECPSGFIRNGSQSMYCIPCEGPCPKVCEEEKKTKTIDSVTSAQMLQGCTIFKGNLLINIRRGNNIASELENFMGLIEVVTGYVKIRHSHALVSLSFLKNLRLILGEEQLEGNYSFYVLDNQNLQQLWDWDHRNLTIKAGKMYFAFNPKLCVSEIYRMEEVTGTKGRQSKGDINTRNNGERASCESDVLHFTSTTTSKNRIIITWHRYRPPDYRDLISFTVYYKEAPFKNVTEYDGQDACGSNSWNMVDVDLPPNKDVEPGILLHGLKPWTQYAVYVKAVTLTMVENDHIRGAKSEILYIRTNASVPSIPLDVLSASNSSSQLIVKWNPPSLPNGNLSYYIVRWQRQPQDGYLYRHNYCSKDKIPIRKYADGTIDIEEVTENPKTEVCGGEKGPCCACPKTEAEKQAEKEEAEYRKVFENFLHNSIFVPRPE
Chain of IGF-1 receptor (P08069 741-1367 partner limits assumed): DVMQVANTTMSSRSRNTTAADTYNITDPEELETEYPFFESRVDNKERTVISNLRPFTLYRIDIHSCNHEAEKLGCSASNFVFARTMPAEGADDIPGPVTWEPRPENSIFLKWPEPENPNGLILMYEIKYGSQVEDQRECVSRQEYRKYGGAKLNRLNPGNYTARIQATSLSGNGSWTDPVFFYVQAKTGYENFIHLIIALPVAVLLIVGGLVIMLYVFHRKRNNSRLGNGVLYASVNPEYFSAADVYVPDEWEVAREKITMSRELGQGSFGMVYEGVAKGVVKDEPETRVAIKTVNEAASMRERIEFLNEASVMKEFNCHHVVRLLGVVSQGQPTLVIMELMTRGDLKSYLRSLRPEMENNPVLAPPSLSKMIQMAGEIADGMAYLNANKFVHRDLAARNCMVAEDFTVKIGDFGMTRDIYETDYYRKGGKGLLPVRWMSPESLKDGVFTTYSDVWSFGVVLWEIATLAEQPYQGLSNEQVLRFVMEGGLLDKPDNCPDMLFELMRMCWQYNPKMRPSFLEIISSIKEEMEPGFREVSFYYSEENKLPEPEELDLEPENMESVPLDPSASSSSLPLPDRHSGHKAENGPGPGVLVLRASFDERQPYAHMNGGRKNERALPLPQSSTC

“B1,A14-10K B^1(H5,10Y16L17R29)29:A^1(H8K14N18,21) (chain 1 GPEHLCGAHLVDALYLVCGDRGFYFNKR; chain 2 GIVDECCHRSCDLKRLENYCN) [di-10K-TC]” returned an IR-A in test [1] (Table 14) of 6.4%. In test [2] (Table 14), this molecule showed an IR-B of 2.1%.

For the molecule `CC[C@H](C)[C@H](NC(=O)CN)C(=O)N[C@H](C(=O)N[C@@H](CC(=O)O)C(=O)N[C@@H](CCC(=O)O)C(=O)N[C@H]1CSSC[C@@H]2NC(=O)[C@H](CO)NC(=O)[C@H](CCCNC(=N)N)NC(=O)[C@H](Cc3ccccc3)NC(=O)[C@H](CSSC[C@H](NC(=O)[C@H](CC(C)C)NC(=O)[C@@H](NC(=O)[C@H](CCC(=O)O)NC(=O)[C@@H]3CCCN3C(=O)CN)[C@@H](C)O)C(=O)NCC(=O)N[C@@H](C)C(=O)N[C@@H](CCC(=O)O)C(=O)N[C@@H](CC(C)C)C(=O)N[C@@H](C(C)C)C(=O)N[C@@H](CC(=O)O)C(=O)N[C@@H](C)C(=O)N[C@@H](CC(C)C)C(=O)N[C@@H](Cc3ccc(O)cc3)C(=O)N[C@@H](CC(C)C)C(=O)N[C@@H](C(C)C)C(=O)N[C@H](C(=O)NCC(=O)N[C@@H](CC(=O)O)C(=O)N[C@@H](CCCNC(=N)N)C(=O)NCC(=O)N[C@@H](Cc3ccccc3)C(=O)N[C@@H](Cc3ccc(O)cc3)C(N)=O)CSSC[C@@H](C(=O)N[C@@H](C)C(N)=O)NC(=O)[C@H](Cc3ccc(O)cc3)NC(=O)[C@H](CCSC)NC(=O)[C@H](CCC(=O)O)NC(=O)[C@H](CC(C)C)NC(=O)[C@H](CCCNC(=N)N)NC(=O)[C@H](CCCNC(=N)N)NC(=O)[C@H](CC(C)C)NC(=O)[C@H](CC(=O)O)NC2=O)NC1=O)C(C)C` [IGF-1 A:B (E10Y16L17) DPI], the “% IGF-1 (in test)” value at IGF-1 receptor was 3.3%.

“B^1(H5,10Y16L17R29)30-C^1des9-12-A^1(H8,K14,N18,21) (GPEHLCGAHLVDALYLVCGDRGFYFNKRTGYGSSSRRGIVDECCHRSCDLKRLENYCN) [DP8Mut3KA14]” gave an IR-A in test [1] (Table 14) of 132.2%. The IR-B in test [2] (Table 14) is given as 12.6%.

Consider “B^1(H5,10Y16L17K29)29-A^1(H8,N18,21) (GPEHLCGAHLVDALYLVCGDRGFYFNKKGIVDECCHRSCDLRRLENYCN) [DP3(SC)]”, for which the IR-A in test [1] (Table 14) worked out at 0.03%.

With “B^1(H5,10Y16L17K29)29:A^1(H8,N18,21) (chain 1 GPEHLCGAHLVDALYLVCGDRGFYFNKK; chain 2 GIVDECCHRSCDLRRLENYCN) [DP3(TC)]”, the IR-A in test [1] (Table 14) is reported as 159.8%. This molecule showed an IR-B in test [2] (Table 14) of 33.1%.

As to “B1,A14-10K B^1(H5,10Y16L17R29)30-C^1des9-12-A^1(H8,K14,N18,21) (GPEHLCGAHLVDALYLVCGDRGFYFNKRTGYGSSSRRGIVDECCHRSCDLKRLENYCN) [MIU-79]”, the IR-A in test [1] (Table 14) was 1.7%. The IR-B in test [2] (Table 14) came to 0.2%.

“B^1(H5,10Y16L17)25-C^1-A^1(T8N18,21) (GPEHLCGAHLVDALYLVCGDRGFYGYGSSSRRAPQTGIVDECCTRSCDLRRLENYCN) [Thr,A8]” came in with an IR-A in test [1] (Table 13) of 20.4%. The same molecule yielded an IR-B in test [2] (Table 13) of 8.4%.

For “B1-PEG20K MIU-35 (GPEHLCGAHLVDALYLVCGDRGFYGYGSSSRRAPQTGIVDECCHRSCDLRRLENYCN; not fully specified (N-terminus); ends and bridges not checked; also: PEG20K at B1) [#39]”, the “% Insulin Activity IR-A” value in test [1] (Table 12) came out at 3.1%. In addition, the IR-A in test [1] (Table 13) stood at 4.5%. For the same molecule, the “Phosphorylation (EC50) % IR-A” value in test [1] (Table 17) is reported as 4.5%. Further, the “% Insulin Activity IR-B” value in test [2] (Table 12) amounted to 1.1%. The same molecule displayed an IR-B in test [2] (Table 13) of 1.1%. The “Phosphorylation (EC50) % IR-B” value in test [2] (Table 17) came out at 1.1%.

B1: GE5W-B^1(H5,10Y16L17)25-C^1-A^1(A1H8N18,21) (protein)
chain: GEEEEEWGPEHLCGAHLVDALYLVCGDRGFYGYGSSSRRAPQTAIVDECCHRSCDLRRLENYCN
B1 returned an IR-A in test [1] (Table 13) of 2.1%. For the same molecule, the IR-B in test [2] (Table 13) stood at 0.7%.
